Data: patent US20100203559A1

Tests used:
[1] = molecular target: GAPDH (SiMa cell lysate) (human (SiMa cells)) (UniProt P04406); test: ECL sandwich ELISA, SiMa lysate; capture G8795, detection 2275-PC-1; result of the pair
[2] = molecular target: syntaxin 2 (SiMa cell lysate) (human (SiMa cells)) (UniProt P32856); test: ECL sandwich ELISA, SiMa lysate; capture MAB2936, detection AB5596; result of the pair
[3] = molecular target: syntaxin 2 (SiMa cell lysate) (human (SiMa cells)) (UniProt P32856); test: ECL sandwich ELISA, SiMa lysate; capture MAB2936, detection S5687; result of the pair
[4] = molecular target: SNAP-25134-206 peptide (human); test: SPR (BIAcore 3000), peptide amine-coupled to CM5, antibody as analyte, 1:1 fit
[5] = molecular target: SNAP-25134-197 peptide (human); test: as above
[6] = molecular target: syntaxin 1 (SiMa cell lysate) (human (SiMa cells)) (UniProt Q16623); test: ECL sandwich ELISA, SiMa lysate; capture S0664, detection S1172-1; result of the pair
[7] = molecular target: syntaxin 1 (SiMa cell lysate) (human (SiMa cells)) (UniProt Q16623); test: ECL sandwich ELISA, SiMa lysate; capture S0664, detection S1172-2; result of the pair
[8] = molecular target: GAPDH (SiMa cell lysate) (human (SiMa cells)) (UniProt P04406); test: ECL sandwich ELISA, SiMa lysate; capture MAB374, detection G8795; result of the pair
[9] = molecular target: GAPDH (SiMa cell lysate) (human (SiMa cells)) (UniProt P04406); test: ECL sandwich ELISA, SiMa lysate; capture MAB374, detection 2275-PC-1; result of the pair
[10] = molecular target: GAPDH (SiMa cell lysate) (human (SiMa cells)) (UniProt P04406); test: ECL sandwich ELISA, SiMa lysate; capture MAB374, detection G9545; result of the pair

Substance | Kd [4] | koff [4] | Kd [5] | koff [5] | kon [5] | other results
α-GAPDH mouse monoclonal antibody G8795 (Sigma) | – | – | – | – | – | Signal/Noise Ratio (lysate/buffer) [1]: 2.74
α-human syntaxin 2 mouse monoclonal antibody MAB2936 (R & D Systems) | – | – | – | – | – | Signal/Noise Ratio (lysate/buffer) [2]: 1.2; Signal/Noise Ratio (lysate/buffer) [3]: 1.07
MC-6050 α-SNAP-25 mouse monoclonal antibody (Research & Diagnostic Antibodies) | 19.8 µM | 0.00607 s⁻¹ | 0.000497 µM | 0.000882 s⁻¹ | 1.78e+06 M⁻¹ s⁻¹ | kon [4]: 306 M⁻¹ s⁻¹
α-Syntaxin 1A-HPC mouse monoclonal antibody S0664 (Sigma) | – | – | – | – | – | Signal/Noise Ratio (lysate/buffer) [6]: 4.23; Signal/Noise Ratio (lysate/buffer) [7]: 1.21
MC-6053 α-SNAP-25 mouse monoclonal antibody (Research & Diagnostic Antibodies) | 0.24 µM | 2.56e-05 s⁻¹ | 0.000508 µM | 0.00118 s⁻¹ | 2.32e+06 M⁻¹ s⁻¹ | –
α-GAPDH mouse monoclonal antibody MAB374 (Chemicon) | – | – | – | – | – | Signal/Noise Ratio (lysate/buffer) [8]: 0.89; Signal/Noise Ratio (lysate/buffer) [9]: 20; Signal/Noise Ratio (lysate/buffer) [10]: > 100
